The target of assay [1] is T1, TIGIT (UniProt Q495A1 22-244).
T1 construct: whole, on cells; cell-expressed counter structure
T1 sequence (looked up): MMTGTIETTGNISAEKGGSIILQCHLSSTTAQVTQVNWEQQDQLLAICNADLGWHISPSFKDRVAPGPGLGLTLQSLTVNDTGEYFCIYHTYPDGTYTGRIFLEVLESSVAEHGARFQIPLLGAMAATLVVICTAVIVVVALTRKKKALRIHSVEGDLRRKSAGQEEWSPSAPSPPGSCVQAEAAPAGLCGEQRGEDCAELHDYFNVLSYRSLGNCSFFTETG
Briefly: flow cytometry, cells expressing TIGIT. Background: In flow cytometry, cells or beads pass a laser one at a time.

The next assay deals with T2, CD226 (Homo sapiens (Human), UniProt Q15762 19-336).
T2 construct: on transfected cells
T2 sequence: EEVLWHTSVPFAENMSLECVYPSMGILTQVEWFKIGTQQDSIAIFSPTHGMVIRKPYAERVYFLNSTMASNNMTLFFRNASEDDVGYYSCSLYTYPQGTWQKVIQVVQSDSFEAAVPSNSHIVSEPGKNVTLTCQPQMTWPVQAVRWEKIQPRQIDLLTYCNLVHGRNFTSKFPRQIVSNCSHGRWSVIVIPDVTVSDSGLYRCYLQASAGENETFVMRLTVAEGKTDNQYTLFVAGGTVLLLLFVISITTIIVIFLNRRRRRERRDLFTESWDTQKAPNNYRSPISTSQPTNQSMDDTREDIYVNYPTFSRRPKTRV
The assay can be described thus: flow cytometry, transfected cells.

Assay [2] concerns the target T3, TIGIT (Homo sapiens (Human), UniProt Q495A1 22-244).
T3 construct: on transfected cells
T3 sequence: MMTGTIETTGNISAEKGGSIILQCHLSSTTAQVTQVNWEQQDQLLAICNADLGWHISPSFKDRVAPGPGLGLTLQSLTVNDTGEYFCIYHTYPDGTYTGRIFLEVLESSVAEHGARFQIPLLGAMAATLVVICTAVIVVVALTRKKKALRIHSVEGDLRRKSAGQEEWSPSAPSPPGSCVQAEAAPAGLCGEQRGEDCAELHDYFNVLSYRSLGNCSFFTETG
The assay can be described thus: flow cytometry, transfected cells.

For the next assay, the target named is T4, CD96 (UniProt P40200 22-585, limits assumed).
T4 construct: whole, on cells; on transfected cells
T4 sequence (looked up): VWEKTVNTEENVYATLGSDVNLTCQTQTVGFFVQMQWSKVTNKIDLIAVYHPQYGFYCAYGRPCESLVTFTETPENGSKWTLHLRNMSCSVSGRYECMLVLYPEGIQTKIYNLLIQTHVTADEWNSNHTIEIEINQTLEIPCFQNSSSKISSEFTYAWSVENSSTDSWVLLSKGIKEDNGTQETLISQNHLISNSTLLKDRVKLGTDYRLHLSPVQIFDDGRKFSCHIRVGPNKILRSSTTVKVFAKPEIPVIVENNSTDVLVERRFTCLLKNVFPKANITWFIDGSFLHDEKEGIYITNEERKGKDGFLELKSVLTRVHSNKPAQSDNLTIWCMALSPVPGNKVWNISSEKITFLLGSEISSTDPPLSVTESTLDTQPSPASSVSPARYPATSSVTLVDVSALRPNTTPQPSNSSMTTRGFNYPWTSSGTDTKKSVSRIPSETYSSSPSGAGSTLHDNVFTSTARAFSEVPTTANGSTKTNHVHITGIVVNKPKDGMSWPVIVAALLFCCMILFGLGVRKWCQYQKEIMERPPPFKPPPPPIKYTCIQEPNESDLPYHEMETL
The assay can be described thus: flow cytometry, transfected cells.

Assay [3] deals with T5, PD-1 stably expressed on Jurkat/IL-2 reporter cells (Jurkat/PD-1) (human, UniProt Q15116 21-288).
T5 construct: also called Jurkat/PD-1 cells; PD-1+ Jurkat cells
The assay can be described thus: culture supernatant on PD-1+ Jurkat cells, surface bound PD-L2 detected with anti-his-APC by flow cytometry.

The next assay addresses T6, CD28 (Homo sapiens (Human), UniProt P10747 19-220).
T6 construct: Expressed on transfected HEK293 cells
The assay can be described thus: flow cytometry, HEK293 cells transfected with CD28.

This note sets out measurements from patent publication US20210130437A1 (ALPINE IMMUNE SCIENCES, published 2021).

T5 sequence (Q15116 21-288): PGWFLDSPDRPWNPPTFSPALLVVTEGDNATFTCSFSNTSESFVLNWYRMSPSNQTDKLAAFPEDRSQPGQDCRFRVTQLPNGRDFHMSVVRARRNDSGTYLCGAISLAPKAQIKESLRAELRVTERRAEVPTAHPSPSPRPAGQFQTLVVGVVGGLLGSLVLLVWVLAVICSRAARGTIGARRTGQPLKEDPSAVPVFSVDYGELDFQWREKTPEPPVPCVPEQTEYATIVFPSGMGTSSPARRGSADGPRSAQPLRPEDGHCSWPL

B1: variant CD155 IgV-Fc V9L, V11M, P18S, N35S, S54G, Q62K, L79P, L104M, T107M, V115M (Fc fusion, not shown: a dimerising Fc or GST)
chain: WPPPGTGDLVMQAPTQVSGFLGDSVTLPCYLQVPSMEVTHVSQLTWARHGESGGMAVFHQTKGPSYSESKRLEFVAARPGAELRNASLRMFGLRVEDEGNYTCMFVMFPQGSRSMDIWLRVL
Turning to B1, in the assay with TIGIT [1], the “MFI at 25 nM” value was determined as 3000.

B2: Wildtype CD155 IgV Fc (Fc fusion, not shown: a dimerising Fc or GST)
chain: WPPPGTGDVVVQAPTQVPGFLGDSVTLPCYLQVPNMEVTHVSQLTWARHGESGSMAVFHQTQGPSYSESKRLEFVAARLGAELRNASLRMFGLRVEDEGNYTCLFVTFPQGSRSVDIWLRVL
Turning to B2, the MFI parental ratio in the assay with CD226, with TIGIT [2] and with CD96 was 1 ratio in each case.

B3: variant CD155 IgV-Fc A81V, L83P (Fc fusion, not shown: a dimerising Fc or GST)
chain: WPPPGTGDVVVQAPTQVPGFLGDSVTLPCYLQVPNMEVTHVSQLTWARHGESGSMAVFHQTQGPSYSESKRLEFVAARLGVEPRNASLRMFGLRVEDEGNYTCLFVTFPQGSRSVDIWLRVL
With B3, the MFI parental ratio in the assay with CD226 was 1.1 ratio; with TIGIT [2], 1.1 ratio; in the assay with CD96, 0.8 ratio.

B4: variant CD155 IgV-Fc P18L, L79V, F91S (Fc fusion, not shown: a dimerising Fc or GST)
chain: WPPPGTGDVVVQAPTQVLGFLGDSVTLPCYLQVPNMEVTHVSQLTWARHGESGSMAVFHQTQGPSYSESKRLEFVAARVGAELRNASLRMSGLRVEDEGNYTCLFVTFPQGSRSVDIWLRVL
Take B4: the MFI parental ratio in the assay with CD226 turned out to be 1.4 ratio; in the assay with TIGIT [2], 1.5 ratio; in the assay with CD96, 1.1 ratio.

B5: variant CD155 IgV-Fc P18T, F91S, R94H (Fc fusion, not shown: a dimerising Fc or GST)
chain: WPPPGTGDVVVQAPTQVTGFLGDSVTLPCYLQVPNMEVTHVSQLTWARHGESGSMAVFHQTQGPSYSESKRLEFVAARLGAELRNASLRMSGLHVEDEGNYTCLFVTFPQGSRSVDIWLRVL
B5: the MFI parental ratio with CD226 amounted to 1 ratio; in the assay with TIGIT [2], 1.1 ratio; in the assay with CD96, 0.8 ratio.

B6: PD-L2 SIP with variant PD-L2 IgV H15Q,V31M,S67L,Q82R,V89D (SEQ ID NO:316), Avitag and His tag (ligand)
chain: LFTVTVPKELYIIEQGSNVTLECNFDTGSHMNLGAITASLQKVENDTSPHRERATLLEEQLPLGKALFHIPQVQVRDEGQYRCIIIYGDAWDYKYLTLKVKAGLNDIFEAQKIEWHEHHHHHH
notes: also called variant PD-L2 SIP
Regarding B6, the binding result in assay [3] is “binds”.

B7: WT CD80 ECD Fc (Fc fusion, not shown: a dimerising Fc or GST)
chain: VIHVTKEVKEVATLSCGHNVSVEELAQTRIYWQKEKKMVLTMMSGDMNIWPEYKNRTIFDITNNLSIVILALRPSDEGTYECVVLKYEKDAFKREHLAEVTLSVKADFPTPSISDFEIPTSNIRRIICSTSGGFPEPHLSWLENGEELNAINTTVSQDPETELYAVSSKLDFNMTTNHSFMCLIKYGHLRVNQTFNWNTTKQEHFPDN
As to B7, the “MFI at 66.6 nM” value in the assay with CD28 is 3070.
